In patent US20230312743A1 (MIROBIO, published 2023):

What was measured:
[1] = biological target: T1, monomeric soluble human PD-1 extracellular domain (human, UniProt Q15116 25-170); test: SPR (Biacore 8K), 37 C, antibody captured via anti-human IgG, soluble PD-1 ECD as analyte, single cycle kinetics
T1 construct: extracellular domain; also called recombinant human PD-1 extracellular domain
Method: (§1) Antibody variants were produced consisting of all the potential combinations of humanized VH and VL domains. […] The binding affinity and kinetics of the humanized antibody variants to human or cynomolgus PD-1 were determined by surface plasmon resonance (SPR) using the Biacore 8 K (Cytiva). Human antibody capture kit (Cytiva) was used to coat a Series S CM5 Sensor Chip (Cytiva) with polyclonal anti-human IgG. Anti-PD-1 antibody was then captured onto the biosensor surface and an isotype control antibody captured in the reference channel. Various concentrations of monomeric soluble human PD-1 extracellular domain or soluble cynomolgus macaque PD-1 extracellular domain were then injected over the immobilized antibodies in the buffer 10 mM Hepes, 150 mM NaCl, 0.005% v/v Surfactant P20, pH 7.4 (HBS-P) at 37° C., in a single cycle kinetics analysis. Association and dissociation rates were fitted using BiaEvaluation Software (Cytiva) after reference and blank subtractions, and dissociation constants were calculated.

[2] = biological target: T2, soluble cynomolgus macaque PD-1 extracellular domain (cynomolgus macaque, UniProt B0LAJ3 25-170); test: as above
T2 construct: also called Cyno PD-1; cynomolgus PD-1
Method: as §1

T1 sequence (Q15116 25-170): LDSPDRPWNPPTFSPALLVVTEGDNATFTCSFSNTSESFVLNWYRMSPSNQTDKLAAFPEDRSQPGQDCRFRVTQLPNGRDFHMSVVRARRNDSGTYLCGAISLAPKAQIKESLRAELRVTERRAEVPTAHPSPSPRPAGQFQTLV
T2 sequence (B0LAJ3 entry or part of it limits assumed): as the sequence (Q15116 25-170) above, with D2E, P10A, V19L, T35A, Q75R, T144A counted along it

Binder	Kd [1]	Kd [2]
humCL19v9 (antibody, human IgG1, V domains shown, hu-VH3 + hu-VL1; human IgG1 kappa isotype) VH: QVQLVQSGSELKKPGASVKVSCKAFGYTFTTYPIEWMRQAPGQGLEWIGNFHPYNDDTKYNEGFTGRFVLSVDKSSTTVYLQISSLKAEDTAVYYCARENYGSHGGFVYWGQGTLVTVSS VL: ENQLTQSPSSLSASVGDRVTITCRASSSVISSYLHWYQQKPGKAPKLLIYSTSNLASGVPSRFSGSGSGTDYTLTISSLQPEDFATYYCQQYNSYPLTFGGGTKLEIK	44.8 nM	251 nM
Parental (Clone 19 VH and VL) (antibody, V domains shown, The antibodies were captured through anti-human IgG and the variants were made on human IgG1 kappa, so it is probably a chimeric human IgG1 kappa) VH: QVQLQQSGAELVKPGASVKMSCKAFGYTFTTYPIEWMKQNHGKSLEWIGNFHPYNDDTKYNEKFKGKAKLTVEKSSTTVYLELSRLTSDDSAVYYCARENYGSHGGFVYWGQGTLVTVSG VL: ENVLTQSPAIMSASPGEKVTMTCRASSSVISSYLHWYQQKSGASPKLWIYSTSNLASGVPDRFSGSGSGTSYSLTISSVEAEDAATYYCQQYNSYPLTFGAGTKLEIK	53.7 nM	318 nM
humCL19v3 (antibody, human IgG1, V domains shown, hu-VH1 + hu-VL3; human IgG1 kappa isotype) VH: QVQLVQSGAEVKKPGASVKVSCKAFGYTFTTYPIEWMRQAPGKGLEWIGNFHPYNDDTKYNEKFQGRVTLTVDKSSTTVYMELSSLRSEDTAVYYCARENYGSHGGFVYWGQGTLVTVSS VL: ENVLTQSPATLSLSPGERATLSCRASSSVISSYLHWYQQKPGQAPRLLIYSTSNLASGIPARFSGSGSGTDYTLTISSLEPEDFAVYYCQQYNSYPLTFGGGTKLEIK	37.3 nM	236 nM
humCL19v11 (antibody, human IgG1, V domains shown, hu-VH3 + hu-VL3; human IgG1 kappa isotype) VH: QVQLVQSGSELKKPGASVKVSCKAFGYTFTTYPIEWMRQAPGQGLEWIGNFHPYNDDTKYNEGFTGRFVLSVDKSSTTVYLQISSLKAEDTAVYYCARENYGSHGGFVYWGQGTLVTVSS VL: ENVLTQSPATLSLSPGERATLSCRASSSVISSYLHWYQQKPGQAPRLLIYSTSNLASGIPARFSGSGSGTDYTLTISSLEPEDFAVYYCQQYNSYPLTFGGGTKLEIK	52.5 nM	249 nM
humCL19v6 (antibody, human IgG1, V domains shown, hu-VH2 + hu-VL2; human IgG1 kappa isotype) VH: QVQLVQSGAEVKKPGASVKVSCKAFGYTFTTYPIEWVRQAPGKGLEWMGNFHPYNDDTKYNEKFQGRVTMTVDKSTTTVYMELSSLRSEDTAVYYCARENYGSHGGFVYWGQGTLVTVSS VL: ENQLTQSPSSLSASVGDRVTITCRASSSVISSYLHWYQQKPGKAPKLLIYSTSNLASGVPSRFSGSGSGTDYTLTISSLQPEDFATYYCQQYRGYPLTFGGGTKLEIK	2000 nM	15200 nM
humCL19v4 (antibody, human IgG1, V domains shown, hu-VH1 + hu-VL4; human IgG1 kappa isotype) VH: QVQLVQSGAEVKKPGASVKVSCKAFGYTFTTYPIEWMRQAPGKGLEWIGNFHPYNDDTKYNEKFQGRVTLTVDKSSTTVYMELSSLRSEDTAVYYCARENYGSHGGFVYWGQGTLVTVSS VL: ENVLTQSPATLSLSPGERATLSCRASSSVISSYLHWYQQKPGQAPRLLIYSTSNRATGIPARFSGSGSGTDYTLTISSLEPEDFAVYYCQQYNSYPLTFGGGTKLEIK	32 nM	199 nM
humCL19v2 (antibody, human IgG1, V domains shown, hu-VH1 + hu-VL2; human IgG1 kappa isotype) VH: QVQLVQSGAEVKKPGASVKVSCKAFGYTFTTYPIEWMRQAPGKGLEWIGNFHPYNDDTKYNEKFQGRVTLTVDKSSTTVYMELSSLRSEDTAVYYCARENYGSHGGFVYWGQGTLVTVSS VL: ENQLTQSPSSLSASVGDRVTITCRASSSVISSYLHWYQQKPGKAPKLLIYSTSNLASGVPSRFSGSGSGTDYTLTISSLQPEDFATYYCQQYRGYPLTFGGGTKLEIK	1010 nM	

Further lines, results first:

Kd [1]	Kd [2]	Binder
80200 nM		humCL19v14 (antibody, human IgG1, V domains shown, hu-VH4 + hu-VL2; human IgG1 kappa isotype) VH: QVQLVQSGSELKKPGASVKVSCKAFGYTFTTYPIEWVRQAPGQGLEWMGNFHPYNDDTKYNEGFTGRFVFSVDKSVTTVYLQISSLKAEDTAVYYCARENYGSHGGFVYWGQGTLVTVSS VL: ENQLTQSPSSLSASVGDRVTITCRASSSVISSYLHWYQQKPGKAPKLLIYSTSNLASGVPSRFSGSGSGTDYTLTISSLQPEDFATYYCQQYRGYPLTFGGGTKLEIK
670 nM		humCL19v10 (antibody, human IgG1, V domains shown, hu-VH3 + hu-VL2; human IgG1 kappa isotype) VH: QVQLVQSGSELKKPGASVKVSCKAFGYTFTTYPIEWMRQAPGQGLEWIGNFHPYNDDTKYNEGFTGRFVLSVDKSSTTVYLQISSLKAEDTAVYYCARENYGSHGGFVYWGQGTLVTVSS VL: ENQLTQSPSSLSASVGDRVTITCRASSSVISSYLHWYQQKPGKAPKLLIYSTSNLASGVPSRFSGSGSGTDYTLTISSLQPEDFATYYCQQYRGYPLTFGGGTKLEIK
160 nM		humCL19v13 (antibody, human IgG1, V domains shown, hu-VH4 + hu-VL1; human IgG1 kappa isotype) VH: QVQLVQSGSELKKPGASVKVSCKAFGYTFTTYPIEWVRQAPGQGLEWMGNFHPYNDDTKYNEGFTGRFVFSVDKSVTTVYLQISSLKAEDTAVYYCARENYGSHGGFVYWGQGTLVTVSS VL: ENQLTQSPSSLSASVGDRVTITCRASSSVISSYLHWYQQKPGKAPKLLIYSTSNLASGVPSRFSGSGSGTDYTLTISSLQPEDFATYYCQQYNSYPLTFGGGTKLEIK
58.9 nM	369 nM	humCL19v8 (antibody, human IgG1, V domains shown, hu-VH2 + hu-VL4; human IgG1 kappa isotype) VH: QVQLVQSGAEVKKPGASVKVSCKAFGYTFTTYPIEWVRQAPGKGLEWMGNFHPYNDDTKYNEKFQGRVTMTVDKSTTTVYMELSSLRSEDTAVYYCARENYGSHGGFVYWGQGTLVTVSS VL: ENVLTQSPATLSLSPGERATLSCRASSSVISSYLHWYQQKPGQAPRLLIYSTSNRATGIPARFSGSGSGTDYTLTISSLEPEDFAVYYCQQYNSYPLTFGGGTKLEIK
161 nM	896 nM	humCL19v16 (antibody, human IgG1, V domains shown, hu-VH4 + hu-VL4; human IgG1 kappa isotype) VH: QVQLVQSGSELKKPGASVKVSCKAFGYTFTTYPIEWVRQAPGQGLEWMGNFHPYNDDTKYNEGFTGRFVFSVDKSVTTVYLQISSLKAEDTAVYYCARENYGSHGGFVYWGQGTLVTVSS VL: ENVLTQSPATLSLSPGERATLSCRASSSVISSYLHWYQQKPGQAPRLLIYSTSNRATGIPARFSGSGSGTDYTLTISSLEPEDFAVYYCQQYNSYPLTFGGGTKLEIK
64.5 nM	565 nM	humCL19v7 (antibody, human IgG1, V domains shown, hu-VH2 + hu-VL3; human IgG1 kappa isotype) VH: QVQLVQSGAEVKKPGASVKVSCKAFGYTFTTYPIEWVRQAPGKGLEWMGNFHPYNDDTKYNEKFQGRVTMTVDKSTTTVYMELSSLRSEDTAVYYCARENYGSHGGFVYWGQGTLVTVSS VL: ENVLTQSPATLSLSPGERATLSCRASSSVISSYLHWYQQKPGQAPRLLIYSTSNLASGIPARFSGSGSGTDYTLTISSLEPEDFAVYYCQQYNSYPLTFGGGTKLEIK
47.5 nM	253 nM	humCL19v12 (antibody, human IgG1, V domains shown, hu-VH3 + hu-VL4; human IgG1 kappa isotype) VH: QVQLVQSGSELKKPGASVKVSCKAFGYTFTTYPIEWMRQAPGQGLEWIGNFHPYNDDTKYNEGFTGRFVLSVDKSSTTVYLQISSLKAEDTAVYYCARENYGSHGGFVYWGQGTLVTVSS VL: ENVLTQSPATLSLSPGERATLSCRASSSVISSYLHWYQQKPGQAPRLLIYSTSNRATGIPARFSGSGSGTDYTLTISSLEPEDFAVYYCQQYNSYPLTFGGGTKLEIK
57.6 nM	440 nM	humCL19v5 (antibody, human IgG1, V domains shown, hu-VH2 + hu-VL1; human IgG1 kappa isotype) VH: QVQLVQSGAEVKKPGASVKVSCKAFGYTFTTYPIEWVRQAPGKGLEWMGNFHPYNDDTKYNEKFQGRVTMTVDKSTTTVYMELSSLRSEDTAVYYCARENYGSHGGFVYWGQGTLVTVSS VL: ENQLTQSPSSLSASVGDRVTITCRASSSVISSYLHWYQQKPGKAPKLLIYSTSNLASGVPSRFSGSGSGTDYTLTISSLQPEDFATYYCQQYNSYPLTFGGGTKLEIK
